One molecule from US7811569 can be followed below.

For test [1], the target named is native MSP-3 antigen of Plasmodium falciparum clone 3D7 schizonts and merozoites (Plasmodium falciparum). The experiment in a line: indirect immunofluorescence on 3D7 mature schizont infected RBCs; antibody at 3 µg/ml in ADCI.
Test [2] has the same target. The experiment in a line: cell-based or functional assay.
For test [3] the target is unchanged. Description: indirect immunofluorescence on 3D7 mature schizont infected RBCs; antibody at 15 µg/ml in ADCI.

B1: RAM1 IgG3 (antibody, V domains shown)
VH: QVQLVQSGGGVVQPGRSLRLSCAASGFTFSSYAMHWVRQAPGKGLEWVAVISYDGSNKYYADSVKGRFTISRDNSKNTLYLQMSSLRAEDTAVYYCVKGASSWSTGTLVTVSS
VL: DIVMMQSPATLSASVGDRVTITCRASQSISSWLAWYQQKPGKAPNLLIYKASSLESGVPSRFSGSGSGTEFTLTISSLQPDDFATYYCQQYKSFPYTFGQGTRLEIKR
B1 had an IFAT in ADCI (endpoint titre of indirect immunofluorescence) in test [1] of 10 titre. In test [2], this molecule had an SGI % (specific growth inhibitory index, ADCI with monocytes, 3 µg/ml) of 23% and an SGI % (specific growth inhibitory index, ADCI with monocytes, 15 µg/ml) of 49%. This molecule also gave an IFAT in ADCI (endpoint titre of indirect immunofluorescence) in test [3] of 50 titre.
